Source: patent US20250277030A1, “ANTI-NAPI2B ANTIBODIES AND METHODS OF USE” (Zymeworks BC Inc., priority 2022, published 2025)

Assays:
[1] = biological target: human sodium-dependent phosphate transporter 2B (NaPi2b) (human) (UniProt O95436); test: flow cytometry competition on HEK293-6e cells expressing human NaPi2b; row antibody unlabeled at 100 µg/mL (the reference of the calculation); competitor: AF647-labeled v23855 at 1 µg/mL
[2] = biological target: human sodium-dependent phosphate transporter 2B (NaPi2b) (human) (UniProt O95436); test: flow cytometry competition on HEK293-6e cells expressing human NaPi2b; row antibody unlabeled at 100 µg/mL (the reference of the calculation); competitor: AF647-labeled v18992 (MX35) at 1 µg/mL
[3] = biological target: human sodium-dependent phosphate transporter 2B (NaPi2b) (human) (UniProt O95436); test: flow cytometry competition on HEK293-6e cells expressing human NaPi2b; row antibody unlabeled at 100 µg/mL (the reference of the calculation); competitor: AF647-labeled v18993 (lifastuzumab) at 1 µg/mL

Measured: % inhibition vs. irrelevant mAb

Sequence of human sodium-dependent phosphate transporter 2B (NaPi2b) (human) (O95436 whole entry): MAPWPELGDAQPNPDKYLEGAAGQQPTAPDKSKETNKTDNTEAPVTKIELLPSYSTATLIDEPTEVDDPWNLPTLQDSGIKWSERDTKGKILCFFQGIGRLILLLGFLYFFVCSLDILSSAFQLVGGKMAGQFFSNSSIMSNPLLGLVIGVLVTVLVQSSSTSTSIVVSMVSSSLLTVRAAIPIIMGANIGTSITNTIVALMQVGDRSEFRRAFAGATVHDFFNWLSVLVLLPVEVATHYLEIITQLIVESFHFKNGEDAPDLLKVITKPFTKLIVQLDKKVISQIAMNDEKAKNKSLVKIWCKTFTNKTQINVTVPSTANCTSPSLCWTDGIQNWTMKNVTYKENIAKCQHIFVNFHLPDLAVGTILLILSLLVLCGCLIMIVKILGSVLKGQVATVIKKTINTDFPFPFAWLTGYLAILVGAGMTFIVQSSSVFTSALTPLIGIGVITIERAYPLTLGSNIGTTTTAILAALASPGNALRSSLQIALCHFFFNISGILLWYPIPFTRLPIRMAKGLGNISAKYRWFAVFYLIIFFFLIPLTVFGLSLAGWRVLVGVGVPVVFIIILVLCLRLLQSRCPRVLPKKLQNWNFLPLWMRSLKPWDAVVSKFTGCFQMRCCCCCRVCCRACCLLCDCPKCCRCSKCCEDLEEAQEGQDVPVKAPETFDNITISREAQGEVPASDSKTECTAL

v16955, palivizumab (anti-RSV) negative control (antibody)
0%: all assays above
